Results on three molecules are retold here after patent US20220380471A1 (US Dept. of Health and Human Services, published 2022).

Assay [1] addresses T1, B7H3-hFc (human, UniProt Q5ZPR3 29-456).
T1 construct: also called recombinant B7H3-hFc; B7H3 ECD fused with human IgG1 Fc; not shown: human IgG1 Fc
T1 sequence: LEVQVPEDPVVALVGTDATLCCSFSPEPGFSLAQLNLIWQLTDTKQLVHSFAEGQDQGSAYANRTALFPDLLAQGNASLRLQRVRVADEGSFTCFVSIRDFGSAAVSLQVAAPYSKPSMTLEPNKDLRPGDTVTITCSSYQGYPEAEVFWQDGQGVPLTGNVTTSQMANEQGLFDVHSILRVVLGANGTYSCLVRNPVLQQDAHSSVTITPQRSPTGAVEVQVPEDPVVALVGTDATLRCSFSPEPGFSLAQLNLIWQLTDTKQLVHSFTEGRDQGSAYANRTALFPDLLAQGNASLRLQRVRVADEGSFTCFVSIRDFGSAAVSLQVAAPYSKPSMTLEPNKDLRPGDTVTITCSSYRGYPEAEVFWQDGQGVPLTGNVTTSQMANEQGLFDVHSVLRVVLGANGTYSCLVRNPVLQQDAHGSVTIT
Briefly: ELISA, B7H3-hFc coated, VH-His-FLAG detected with anti-FLAG-HRP. From the text:
FIGS. 4A-4C: Binding properties of the B7H3 binders. (FIG. 4A) SDS-PAGE analysis of the purified A1 and B1 binders (VH-His-FLAG fusion) from E. coli. Two micrograms of purified B7H3-hFc, non-reduced (Non.) or reduced (Red.) by β-mercaptoethanol, were separated on an 8% SDS-PAGE gel. Protein bands were visualized by Coomassie blue R-250 staining. (FIG. 4B) Protein binding affinity measurement by ELISA. Five micrograms of B7H3-hFc were coated on the ELISA plate, and different concentrations of domain antibodies were incubated with the plate, and binding was detected by HRP conjugated anti-FLAG mouse monoclonal antibody M2. The binding curves were plotted using the software GraphPad Prism and the calculated EC50 values were determined by the software's algorithm of hyperbola one site binding. (FIG. 4C) Cell binding determination by flow cytometry. Ten microgram per mL domain antibody was co-incubated with one million cells. Antibody binding was visualized by APC conjugated anti-FLAG monoclonal antibody. The curves labelled “1” represent cells stained with secondary antibody only; the curves labelled “2” represent cells stained with A1 or B1 domain antibody.
The VH coding sequences of binders A1 and B1 were fused with His-FLAG tag at their C-termini and cloned into an E. coli expression vector. […] The purified yield was 2 mg/L (A1) and 10 mg/L fermentation (B1) respectively. […]

Assay [2] addresses T2, rat B7H3-His (rat, UniProt Q7TPB4 29-244, limits assumed).
T2 construct: not shown: His tag
T2 sequence (looked up): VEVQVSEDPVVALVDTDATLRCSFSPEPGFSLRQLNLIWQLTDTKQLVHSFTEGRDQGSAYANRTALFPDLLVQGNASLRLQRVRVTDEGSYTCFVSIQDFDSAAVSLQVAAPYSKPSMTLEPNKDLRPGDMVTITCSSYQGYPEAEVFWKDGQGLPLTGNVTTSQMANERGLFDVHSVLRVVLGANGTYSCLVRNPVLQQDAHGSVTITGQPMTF
Kind of assay: phage ELISA, cross-species. An outline of the steps:
(§1)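 Camel VHH phage from libraries of eight individual camels went through 3 rounds of panning on recombinant B7H3-Fc protein. The recorded ELISA signal reflects binding of the selected phage to immobilised human or other-species B7H3, or to control proteins, in a phage ELISA.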

In assay [3] the target is T3, mouse B7H3-His (mouse, UniProt Q8VE98 29-244, limits assumed).
T3 construct: also called recombinant mouse B7H3-His protein; not shown: His tag
T3 sequence (looked up): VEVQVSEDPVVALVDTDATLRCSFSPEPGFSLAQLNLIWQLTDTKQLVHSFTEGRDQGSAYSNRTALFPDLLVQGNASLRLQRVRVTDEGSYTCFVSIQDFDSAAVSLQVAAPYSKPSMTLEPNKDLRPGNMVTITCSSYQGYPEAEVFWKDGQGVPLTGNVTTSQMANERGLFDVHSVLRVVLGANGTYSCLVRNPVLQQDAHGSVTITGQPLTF
Briefly: phage ELISA, cross-species. The method in brief: as §1
A general note: In an ELISA, binding on a coated surface is turned into a signal by an enzyme label.

Assay [4] addresses T4, monkey B7H3-His (monkey).
T4 chain: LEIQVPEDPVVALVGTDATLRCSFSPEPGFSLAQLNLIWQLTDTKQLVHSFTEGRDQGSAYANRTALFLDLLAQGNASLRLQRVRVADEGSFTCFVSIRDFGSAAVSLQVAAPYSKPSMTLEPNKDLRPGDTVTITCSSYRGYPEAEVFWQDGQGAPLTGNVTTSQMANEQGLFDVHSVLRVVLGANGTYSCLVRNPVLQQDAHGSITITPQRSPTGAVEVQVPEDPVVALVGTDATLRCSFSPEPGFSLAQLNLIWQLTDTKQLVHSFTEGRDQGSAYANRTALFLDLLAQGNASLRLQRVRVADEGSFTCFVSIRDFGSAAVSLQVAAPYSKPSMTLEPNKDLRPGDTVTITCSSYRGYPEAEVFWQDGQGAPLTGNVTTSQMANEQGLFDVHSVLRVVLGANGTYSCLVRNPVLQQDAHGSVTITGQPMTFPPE
Kind of assay: phage ELISA, cross-species. An outline of the steps: as §1

The target in assay [5] is T5, human B7H3 (human, UniProt Q5ZPR3 29-466, limits assumed).
T5 construct: also called human B7H3 protein
T5 sequence (looked up): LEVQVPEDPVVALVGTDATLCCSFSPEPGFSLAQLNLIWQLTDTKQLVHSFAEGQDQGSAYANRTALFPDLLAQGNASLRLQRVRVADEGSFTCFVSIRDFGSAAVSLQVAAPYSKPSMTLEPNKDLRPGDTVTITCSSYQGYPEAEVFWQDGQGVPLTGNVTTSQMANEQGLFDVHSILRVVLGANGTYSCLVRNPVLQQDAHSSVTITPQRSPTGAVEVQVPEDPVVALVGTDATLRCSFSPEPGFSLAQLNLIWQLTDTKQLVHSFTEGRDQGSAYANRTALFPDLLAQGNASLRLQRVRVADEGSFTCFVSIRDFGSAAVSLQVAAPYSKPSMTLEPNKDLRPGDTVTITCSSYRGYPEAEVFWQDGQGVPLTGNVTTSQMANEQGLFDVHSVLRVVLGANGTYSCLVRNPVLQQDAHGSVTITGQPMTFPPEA
Kind of assay: phage ELISA, cross-species. An outline of the steps: as §1

The target of assay [6] is Non-relevant antigen. Kind of assay: phage ELISA, cross-species. An outline of the steps: as §1
In assay [7] the target is PD-L1. Kind of assay: ELISA, purified VHH, cross-reaction.
Sequence of PD-L1 (Q9NZQ7 whole entry): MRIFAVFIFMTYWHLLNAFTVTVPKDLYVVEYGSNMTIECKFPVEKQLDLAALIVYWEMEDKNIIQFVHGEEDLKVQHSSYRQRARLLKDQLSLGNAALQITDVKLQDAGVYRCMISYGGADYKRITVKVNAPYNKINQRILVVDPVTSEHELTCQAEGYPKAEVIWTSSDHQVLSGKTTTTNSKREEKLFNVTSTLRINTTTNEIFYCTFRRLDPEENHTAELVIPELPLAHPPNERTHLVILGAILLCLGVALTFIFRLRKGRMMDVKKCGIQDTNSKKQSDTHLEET
The target in assay [8] is IgG control. Briefly: phage ELISA. An outline of the steps:
as §1

Assay [9] deals with T6, hB7H3-His (human, UniProt Q5ZPR3 29-461, limits assumed).
T6 construct: not shown: His tag
T6 sequence (looked up): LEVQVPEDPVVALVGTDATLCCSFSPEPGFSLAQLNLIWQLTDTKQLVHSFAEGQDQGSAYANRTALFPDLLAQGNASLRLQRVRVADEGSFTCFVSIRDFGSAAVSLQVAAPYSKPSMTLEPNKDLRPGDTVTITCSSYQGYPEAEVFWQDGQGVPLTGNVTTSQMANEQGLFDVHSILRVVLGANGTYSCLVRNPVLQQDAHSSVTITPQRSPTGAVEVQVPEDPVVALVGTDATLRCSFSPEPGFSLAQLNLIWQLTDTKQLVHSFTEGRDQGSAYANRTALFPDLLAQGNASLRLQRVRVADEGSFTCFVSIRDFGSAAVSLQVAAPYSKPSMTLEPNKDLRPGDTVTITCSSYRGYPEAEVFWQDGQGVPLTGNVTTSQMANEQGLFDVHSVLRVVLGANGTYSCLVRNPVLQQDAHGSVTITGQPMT
Kind of assay: ELISA, purified VHH. An outline of the steps:
(§2)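 Phage panning on recombinant B7H3-Fc yielded camel VHH nanobodies, which were then purified. Their binding was tested by ELISA against immobilised recombinant proteins, including B7H3 fusion proteins and proteins other than B7H3, and recorded as the ELISA signal.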

The target in assay [10] is T2, rat B7H3-His. Briefly: ELISA, purified VHH. An outline of the steps: as §2
Assay [11] deals with T6, hB7H3-His. Kind of assay: ELISA, purified VHH. An outline of the steps: as §2
This is another data set of the same source.

Assay [12] has as its target T4, monkey B7H3-His. Kind of assay: ELISA, purified VHH. An outline of the steps:
as §2

In assay [13] the target is Non-relevant antigen. Briefly: ELISA, purified VHH. An outline of the steps: as §2

B1: RFB1 (other)
VH: QEQLKESGGRLVTPGTPLTLTCTVSGFSPNNYGVSWVRQPPGKGLEWIGMSSTAGATYYANWAKGRFTISKTSTTVDLEITSPTTEDTATYFCAKGTPSLSYGNIWGPGTLVTVSSGGGGSGGGGSGGGGSAQGPTQTPGGGGSGTEVVVK
notes: Rabbit VH single-domain antibody expressed in E. coli as VH-His-FLAG fusion; also called rabbit antibody RFB1; R1-B1; not shown: 6x His tag and FLAG tag at the C-terminus
Take B1: in assay [1], the EC50 – broadly, the concentration that produces a half-maximal response – was determined as 189 nM.

B2: RFA1 (other)
VH: QSLEESGGGLVTPGGTLTLTCTVSGFSLSSYGMSWVRQAPGKGLEWIGSMANNGDPYYASWAKGRFTISKTSTTVDLKITSPTTEDTATYFCVRAPWGSHSMWGPGTLVTVSSGGGGSGGGGSGGGGSDPVLTQTAGGGTNVEIK
notes: Rabbit VH single-domain antibody expressed in E. coli as VH-His-FLAG fusion; also called rabbit antibody RFA1; Al [sic]; not shown: 6x His tag and FLAG tag at the C-terminus
Molecule B2 yielded an EC50 in [1] of 403 nM.

B3: RWB2 (VHH)
VHH: AVQLVDSGGGSVQAGGSLRLSCVVSGYAFSTYDMAWFRQAPGEKCEWVSTVTNNGRTFYADSVKGRFIISRDNAKNILYLQMNSLKPEDTAVYSCAAAGVRWRCASGGNEGTQVTVSS
notes: Camel VHH; tag not described; also called camel antibody RWB2
Regarding B3, the ELISA signal in assay [2] turned out to be 0.981; in [3], 1.05; in assay [4] it was 0.578; in assay [5], 2.53; in assay [6] it was 0.0684; in assay [7] it was 0.0522. Besides, the ELISA signal in assay [8] stood at 0.0777; in assay [10], 0.0986; in assay [11], 0.152; in [12] it was 0.0799; in assay [13] it was 0.115. In addition, in [9], the binding result is recorded as “no binding”.
